Experimental data: paper PMC4026020

T1: GST-AtTZF1 full-length (Arabidopsis thaliana, UniProt O82307 1-315)
T1 sequence: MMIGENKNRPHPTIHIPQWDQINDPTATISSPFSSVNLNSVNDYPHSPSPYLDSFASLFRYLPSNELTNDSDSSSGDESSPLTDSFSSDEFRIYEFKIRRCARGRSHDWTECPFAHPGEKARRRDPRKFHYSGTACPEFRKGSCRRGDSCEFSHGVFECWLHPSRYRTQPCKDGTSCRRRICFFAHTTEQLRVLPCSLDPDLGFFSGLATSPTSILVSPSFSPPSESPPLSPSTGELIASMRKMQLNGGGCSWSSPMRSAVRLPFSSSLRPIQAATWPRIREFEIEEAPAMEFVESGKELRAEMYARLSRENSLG

T2: MBP-AtTZF1 RR-TZF (Arabidopsis thaliana, UniProt O82307 86-195)
T2 sequence: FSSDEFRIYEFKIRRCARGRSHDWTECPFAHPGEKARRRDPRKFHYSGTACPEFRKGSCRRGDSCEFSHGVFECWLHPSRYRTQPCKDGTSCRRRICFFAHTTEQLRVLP

T3: MBP-AtTZF1 TZF (Arabidopsis thaliana, UniProt O82307 129-195)
T3 sequence: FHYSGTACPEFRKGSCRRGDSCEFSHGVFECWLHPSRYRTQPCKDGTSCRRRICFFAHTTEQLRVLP

T4: MBP-AtTZF1 RR (Arabidopsis thaliana, UniProt O82307 86-128)
T4 chain: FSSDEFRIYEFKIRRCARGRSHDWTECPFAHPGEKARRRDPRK

B1: Fl-ARE19 (ssRNA)
RNA: UAUUUAUUAUUUAUUUAUU
B2: MutG (ssRNA)
RNA: UGUUUGUUGUUUGUUUGUU
B3: Fl-polyU (ssRNA)
RNA: UUUUUUUUUUUUUUUUUUU
B4: ARE19 (ssRNA)
RNA: UAUUUAUUAUUUAUUUAUU

What was measured:
GST-AtTZF1 full-length = biological target: T1, GST-AtTZF1 full-length; assay: fluorescence anisotropy
MBP-AtTZF1 RR-TZF [1] = biological target: T2, MBP-AtTZF1 RR-TZF; assay: fluorescence anisotropy
MBP-AtTZF1 RR-TZF [2] = biological target: T2, MBP-AtTZF1 RR-TZF; assay: EMSA
MBP-AtTZF1 TZF [3] = biological target: T3, MBP-AtTZF1 TZF; assay: fluorescence anisotropy
MBP-AtTZF1 TZF [4] = biological target: T3, MBP-AtTZF1 TZF; assay: EMSA
MBP-AtTZF1 RR = biological target: T4, MBP-AtTZF1 RR; assay: EMSA

Binder | Kd (GST-AtTZF1 full-length) [µM] | Kd (MBP-AtTZF1 RR-TZF [1]) [µM] | further results
B1 | 4.55 ± 0.13 | 0.41 ± 0.05 | –
B2 | – | – | binding result (MBP-AtTZF1 RR-TZF [2]): no binding
B3 | 2.27 ± 0.19 | 0.47 ± 0.03 | Kd (MBP-AtTZF1 TZF [3]): 7.37 ± 0.12 µM
B4 | – | – | binding result (MBP-AtTZF1 TZF [4]): no binding; binding result (MBP-AtTZF1 RR): no binding
